{"source": "IntAct's records for PubMed 20173330", "target": "jip4_mouse Spag9 (UniProt Q58A65)", "sequence (Q58A65 whole entry)": "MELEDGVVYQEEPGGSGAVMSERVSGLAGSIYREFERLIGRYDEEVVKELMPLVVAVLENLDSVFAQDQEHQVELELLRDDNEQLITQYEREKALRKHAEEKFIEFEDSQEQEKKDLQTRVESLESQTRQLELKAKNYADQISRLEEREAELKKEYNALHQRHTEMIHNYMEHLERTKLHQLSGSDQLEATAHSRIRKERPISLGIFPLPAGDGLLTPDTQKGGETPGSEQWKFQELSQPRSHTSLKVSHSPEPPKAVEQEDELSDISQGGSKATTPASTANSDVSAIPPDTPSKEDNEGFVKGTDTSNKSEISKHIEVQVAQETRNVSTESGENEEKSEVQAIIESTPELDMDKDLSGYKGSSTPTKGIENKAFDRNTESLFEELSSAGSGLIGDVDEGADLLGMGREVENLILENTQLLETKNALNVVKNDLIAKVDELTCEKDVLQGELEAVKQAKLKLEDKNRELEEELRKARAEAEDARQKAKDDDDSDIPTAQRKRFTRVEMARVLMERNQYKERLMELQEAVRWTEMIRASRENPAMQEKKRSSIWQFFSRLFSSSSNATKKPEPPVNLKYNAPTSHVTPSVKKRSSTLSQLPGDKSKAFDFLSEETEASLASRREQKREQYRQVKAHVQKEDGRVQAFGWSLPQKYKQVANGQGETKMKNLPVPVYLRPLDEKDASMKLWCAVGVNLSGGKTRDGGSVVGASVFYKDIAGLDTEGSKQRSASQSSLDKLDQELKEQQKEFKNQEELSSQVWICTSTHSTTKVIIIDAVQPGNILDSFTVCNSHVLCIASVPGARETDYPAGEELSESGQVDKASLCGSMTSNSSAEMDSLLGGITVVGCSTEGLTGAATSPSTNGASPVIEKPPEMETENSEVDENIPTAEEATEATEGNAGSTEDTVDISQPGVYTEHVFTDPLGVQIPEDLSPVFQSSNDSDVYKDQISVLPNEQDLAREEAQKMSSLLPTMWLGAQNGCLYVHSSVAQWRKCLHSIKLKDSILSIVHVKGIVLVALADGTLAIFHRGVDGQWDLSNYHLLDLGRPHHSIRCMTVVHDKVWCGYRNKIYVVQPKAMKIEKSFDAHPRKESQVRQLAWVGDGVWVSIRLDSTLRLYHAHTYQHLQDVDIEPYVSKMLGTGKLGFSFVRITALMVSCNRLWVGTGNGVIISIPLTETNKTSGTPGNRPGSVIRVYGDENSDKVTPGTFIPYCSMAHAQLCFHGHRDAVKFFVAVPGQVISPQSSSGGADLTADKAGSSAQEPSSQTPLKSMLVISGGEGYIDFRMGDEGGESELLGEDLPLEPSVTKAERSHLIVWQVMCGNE", "data": [{"substance": "Leucine-rich repeat serine/threonine-protein kinase 2 (Homo sapiens), Q5S007 G2019S", "values": [{"measurement": "effect of a mutation on the interaction", "result": "increasing interaction"}]}, {"substance": "Leucine-rich repeat serine/threonine-protein kinase 2 (Homo sapiens), Q5S007 I2020T", "values": [{"measurement": "effect of a mutation on the interaction", "result": "increasing interaction"}]}, {"substance": "Leucine-rich repeat serine/threonine-protein kinase 2 (Homo sapiens), Q5S007 R1441C", "values": [{"measurement": "effect of a mutation on the interaction", "result": "increasing interaction"}]}, {"substance": "Leucine-rich repeat serine/threonine-protein kinase 2 (Homo sapiens), Q5S007 Y1699C", "values": [{"measurement": "effect of a mutation on the interaction", "result": "decreasing interaction"}]}]}
